Experimental data taken from the nanobody polyreactivity screen of Harvey et al. (2022).

Assay: yeast display, Sf9 membrane polyspecificity reagent, FACS + sequencing; frameworks hold sequencing errors
Method in brief: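 After 36–48 hours of galactose induction, yeast (Saccharomyces cerevisiae BJ5465) displaying a synthetic nanobody library were stained at 4 °C for 1 hour with 10% biotinylated, detergent-solubilized Sf9 membrane reagent. Streptavidin microbeads enriched the stained cells before FACS sorting into low and high (top ~1%) gates on anti-HA and streptavidin fluorescence. Each clone's polyreactivity label reflects its gate of origin.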
With “QVQLVESGGGLVQAGGSLRLSCAASGRIFATNAMGLYRPAPGKERELVATITRSAGRTYYADSVKGRFTISRDNAKNTVYLQMNSLKPEDTAVYYCAASYWDTEPGYREYVYWGQGTQVTVSS” the “polyreactivity (PSR sort gate)” value was “low polyreactivity”.
For “QVQLVESGGGLVQAGGSLRLSCAASGRIFATNAMGWYRPAPGKERELVATITRSAGRTYYADSVKGRFTISRDNAKNTVYLQMNSLKPEDTAVYYCAASYWDTEPGYREYDYWGQGTQVTVSS”, the “polyreactivity (PSR sort gate)” value was “low polyreactivity”.
For “QVQLVESGGGLVQAGGSLRLSCAASGRIFAVYAMGWYRQAPGKERELVAAISWSGGRTNYADSVKGRFTISRDNAKKTVYLQMNSLKPEDTAVYYCNARQWRFGFVASGGKYNYWGQGTQVTVSA”, the “polyreactivity (PSR sort gate)” value was “high polyreactivity”.
With “QVQLVESGGGLVQAGGSLRLSCAASGRIFAWYAMGWYRQAPGKDRELVAAISDSGGSTYYADSVKGRFTISRDNAKNTVYLQMNSLKPEVTAVYYWAADQVVYYAYWSDHYDDWGQGTQVTVSS” the “polyreactivity (PSR sort gate)” value was “low polyreactivity”.
With “QVQLVESGGGLVQAGGSLRLSCAASGRIFAWYAMGWYRQAPGKEREFVAAISRGGSTYYADSVKGRFTISRDNAKNTVYLQMNSLKPEDTAVYYCAASSPSSGRFDYWGQGTQVTVSS” the “polyreactivity (PSR sort gate)” value was “high polyreactivity”.
In the case of “QVQLVESGGGLVQAGGSLRLSCAASGRIFAYNTMGWYREAPGKERELVAVSTSGGSTNYADSVKGRFTISRDNAKNTVYLQMNSLKPEDSAVYYCAKRPYGRSGGSRYDYWGQGTQVTVSS”, the “polyreactivity (PSR sort gate)” value is reported as “high polyreactivity”.
With “QVQLVESGGGLVQAGGSLRLSCAASGRIFAYNTMGWYRQAPGKERELVAVITSGGSTNYADSVNGRFTISRDNAKNTVYLQMNSLKPEDTAVYYCAKRPYGRSGGSRYDYWGQGTQVTVSS” the “polyreactivity (PSR sort gate)” value was “high polyreactivity”.
For “QVQLVESGGGLVQAGGSLRLSCAASGRIFAYNTMGWYRQAPRKERELVAVITSGGATNYADSVKGRFTISRDNAKNTVYLQMNSLKPEDTAVYYCAKRPYGRSGGSRYDYWGQGTQVTVSS”, the “polyreactivity (PSR sort gate)” value was “high polyreactivity”.
With “QVQLVESGGGLVQAGGSLRLSCAASGRIFAYYAMGWYRQAPGKERELVAAINRSGVRTYYADSVKGRFTISRDNAKNTVYLQMNSLKPEDTAVYYCAAPGQHSWGQGTQVTVSS” the “polyreactivity (PSR sort gate)” value was “high polyreactivity”.
With “QVQLVESGGGLVQAGGSLRLSCAASGRIFAYYAMGWYRQAPGKERELVAAISRSGGSTYYADSVKGRFTISRDNAKNTVYLLMNSLKPEDTAVYYCNVVRVRYYWWEFDYWGQGTQVTVSS” the “polyreactivity (PSR sort gate)” value was “high polyreactivity”.
With “QVQLVESGGGLVQAGGSLRLSCAASGRIFAYYAMGWYRQAPGKERELVAAISRSGVSTYYADSVKGRFTISRDNAKNTVYLQMNSLKPEDTAVYYCDARWRSGFTSVDYWGQGTQVTVSS” the “polyreactivity (PSR sort gate)” value was “low polyreactivity”.
With “QVQLVESGGGLVQAGGSLRLSCAASGRIFAYYAMGWYRQAPGKERELVATINYSGTSTYYADSVKGRFTISRDNAKNTVYLQMNSLKPEDTAFYYCAADLTSRLLWYHIERFDYWGQGTQVTVSS” the “polyreactivity (PSR sort gate)” value was “high polyreactivity”.
For “QVQLVESGGGLVQAGGSLRLSCAASGRIFAYYAMGWYRQAPGKERELVATISTGGGTYYADSVKGRFSISRDNAKNTVYLQMNSLKPEDTAVYYCAAAPYWYYGYYYWGQGTQVTVSS”, the “polyreactivity (PSR sort gate)” value was “high polyreactivity”.
In the case of “QVQLVESGGGLVQAGGSLRLSCAASGRIFAYYAMGWYRQAPGKERELVAVISKSGGSTNYADSVKGRFTISRDYAKNTVYLQMNSLKPEDTAVYYCAKRAYDPEMYYWGQGTQVTVSS”, the “polyreactivity (PSR sort gate)” value is reported as “low polyreactivity”.
For “QVQLVESGGGLVQAGGSLRLSCAASGRIFAYYAMGWYRQAPGKEREMVAAISRSGGSTYYADSVKGRFPISRDNAKNTVYLQMNSLKPEDTAVYYCAASLKVPYATMNYWGQGTQVTVSS”, the “polyreactivity (PSR sort gate)” value was “high polyreactivity”.
For “QVQLVESGGGLVQAGGSLRLSCAASGRIFCGYAMGWYRQAPGKERELVAAITSGGRTYYADSVKGRFTISRDNAKNTVYLQMNSLKPEDTAVYYCAAVYVPYYWLGRSRGLDYWGQGTQVTVSS”, the “polyreactivity (PSR sort gate)” value was “high polyreactivity”.
With “QVQLVESGGGLVQAGGSLRLSCAASGRIFDDYAMGWNRQAPGKERELVAAISSSVGNTYYADSVKGRFTISRDNAKYTVYLQMNSLKPEDTAVYYCADYSYVRSSYEVEYDYWGQATQVTVSS” the “polyreactivity (PSR sort gate)” value was “low polyreactivity”.
In the case of “QVQLVESGGGLVQAGGSLRLSCAASGRIFDFNAMGWYRQAPGKEREFVAAIRTSGGDSTYYADSVKGRFTISRDNAKNTVYLQMNSLKPEDTAVYYCAKTVWWYYRYPFDYWGQGTQVTVSS”, the “polyreactivity (PSR sort gate)” value is reported as “low polyreactivity”.
With “QVQLVESGGGLVQAGGSLRLSCAASGRIFDFNAMGWYRQAPGKEREFVAAIRTSGGDSTYYADSVKGRFTISRDNEKNTVYLQMNSLKPEDTAVYYCAKTVWWYYRYPFDYWGQGTQVTVSS” the “polyreactivity (PSR sort gate)” value was “low polyreactivity”.
For “QVQLVESGGGLVQAGGSLRLSCAASGRIFDGYAMGWYRQAPGKERELVAAISSRGGRTYYADSVKGRFTISRDNAKNTVYLQMNSLKPEDTAVYYCAADDPYGEGDYWGQGTQVTVSS”, the “polyreactivity (PSR sort gate)” value was “low polyreactivity”.
In the case of “QVQLVESGGGLVQAGGSLRLSCAASGRIFDHYAMGSYRQAPGKERELVAAISGGGDSTYYAYSVKGRFTISRDNAKNTVYLQMNSLKPEDTAVFYCAADFYVYWGNYAQDYYYWGQGTQVTVSS”, the “polyreactivity (PSR sort gate)” value is reported as “high polyreactivity”.
With “QVQLVESGGGLVQAGGSLRLSCAASGRIFDIYAMGWYRPAPRKERELVAAITRRGGTTYADSVKGRFTISRDNAKNTVYLQMNSLKPEVNAVYYCAAGLYFRKWYSWTRYEYWGQGTQVTVSS” the “polyreactivity (PSR sort gate)” value was “high polyreactivity”.
For “QVQLVESGGGLVQAGGSLRLSCAASGRIFDIYTMGWYRQAPGNERELVASITKRGGSTYYADSVKGRFTISRDNAKNTVYLQMNSLKPEDTAVYYCNVAGKQKPYYVTTRLDYWGQGTQVTVSS”, the “polyreactivity (PSR sort gate)” value was “high polyreactivity”.
With “QVQLVESGGGLVQAGGSLRLSCAASGRIFDLNAMGWYRQAPGKERELVAVITGSGGSTYYADSVKGRFTISRDNAKNTVYLQMNSLKPEDTAVYYCNAYTQQYRSYGYWGQGTQVTVSS” the “polyreactivity (PSR sort gate)” value was “low polyreactivity”.
In the case of “QVQLVESGGGLVQAGGSLRLSCAASGRIFDLYTMGWYRQAPGKERELVAAIRWSDGSTYYADSVTGRFTISRDNAKNTVYLQMNSLKPEDTAVYYCAADTRTSYYNDDYDYWGQGTQVTVSS”, the “polyreactivity (PSR sort gate)” value is reported as “low polyreactivity”.
For “QVQLVESGGGLVQAGGSLRLSCAASGRIFDLYTMGWYRQAPGKERELVAAITSSGDSTYYADSVKGRFTISRDNAKNTVYLQMNSLKPEDTAVYYCAAESKYWEPWWYYYYDMDYWGQGTQVTVSS”, the “polyreactivity (PSR sort gate)” value was “low polyreactivity”.
With “QVQLVESGGGLVQAGGSLRLSCAASGRIFDNYAMGWYRQAPGKERELVAAITYIDSGTYYADSVKGRFTISRDNAKNTVYLQMNSLKPEDTAVYYCAVRLNSDSKRKTQKFGYWGQGTQVTVSS” the “polyreactivity (PSR sort gate)” value was “low polyreactivity”.
With “QVQLVESGGGLVQAGGSLRLSCAASGRIFDNYAMGWYRQAPGKERELVAAITYIDSGTYYADSVKGRFTISRDNAKNTVYLQMNSLKPEDTAVYYCAVRLNSDSKRKTQKYGYWGQGTQVTVSS” the “polyreactivity (PSR sort gate)” value was “low polyreactivity”.
For “QVQLVESGGGLVQAGGSLRLSCAASGRIFDPNAMGWYRQAPGKERELVARIRWWSDGSTYYADSVKGRFTISRDNAKNTVYLQMNSLKPEDTAVYYCATTANRVYGYAPWFGPRSEYWGQGTQVTVSS”, the “polyreactivity (PSR sort gate)” value was “high polyreactivity”.
With “QVQLVESGGGLVQAGGSLRLSCAASGRIFDRNAMGWSRQAPGKERELVAAITRSGGRTYYADSVKGRFTISRDNAKYTVYLQMNSLKPEDTAVYYCNRGYPRSVVHYNSWGQGTQVTVSS” the “polyreactivity (PSR sort gate)” value was “high polyreactivity”.
For “QVQLVESGGGLVQAGGSLRLSCAASGRIFDRYAMGWYRLAPGKERELVAAITTSSGGSTYYADSVKGRFTISRDNAMNTVYLQMQSLNPEDTAVYYCAADRRYNVIGEFGYWGQVTQVTVSS”, the “polyreactivity (PSR sort gate)” value was “low polyreactivity”.
In the case of “QVQLVESGGGLVQAGGSLRLSCAASGRIFDRYVMGWYRQAPVKERALVAAISDGGSTYYADSVKGRFTISRDNAKNTVYLQMISLKPEDTAVYYCNAAFYPNENYYLIYDYWGQGTQVTVSS”, the “polyreactivity (PSR sort gate)” value is reported as “low polyreactivity”.
In the case of “QVQLVESGGGLVQAGGSLRLSCAASGRIFDSNAMGWYRQAPGKERELVATISYRGGRTYYADSVKGRFTISRDNAKNTVYLQMNSLKPEDTAVYYCAVRYWVSGFRAGYYWGQGTQVTVSS”, the “polyreactivity (PSR sort gate)” value is reported as “high polyreactivity”.
For “QVQLVESGGGLVQAGGSLRLSCAASGRIFDTYAMGWDRPAPRKERELVAAINSGGRTYYADSVKGRFTISRDNAKNTVYVQMNSLKPEDTAVYYCAAYITYSYGRYGSWGQGTQVTVSS”, the “polyreactivity (PSR sort gate)” value was “high polyreactivity”.
For “QVQLVESGGGLVQAGGSLRLSCAASGRIFDTYAMGWYRQAPGKERELVAAITRRGGSTYYADSVKGRFTISRDNAKNTVYLQMNSLKPEDSAVYYCAKSLVNRHYDYWGQGTQVTVSS”, the “polyreactivity (PSR sort gate)” value was “low polyreactivity”.
In the case of “QVQLVESGGGLVQAGGSLRLSCAASGRIFDVNDMGCYRQAPGKERELVAAITYSGTDTYYADSVKGRITISRDNAKNTVYLQMNSLKPEDTAVYYCAAEFTGWEYIGRDYWGQGTQVTVSS”, the “polyreactivity (PSR sort gate)” value is reported as “low polyreactivity”.
For “QVQLVESGGGLVQAGGSLRLSCAASGRIFDYNAMGWYRQAPGKERELVAAINSGGSTYADSVKGRFTISRDNAKNTVYLQMNSLKPEDTAVYYCAKSLGQTDWEYDSWGQGTQVTVSS”, the “polyreactivity (PSR sort gate)” value was “low polyreactivity”.
For “QVQLVESGGGLVQAGGSLRLSCAASGRIFDYNAMGWYRQAPGKERELVAAITKDDGSTYYADSVKGRFTISRDNAKNTVYLQMNSLKPEDTAVYYCAAEFYWTYVDIWYDYWGQGTQVTVSS”, the “polyreactivity (PSR sort gate)” value was “low polyreactivity”.
With “QVQLVESGGGLVQAGGSLRLSCAASGRIFDYNTMGWSRQAPGKERELVAAITGGTGSTYYADSVKGRFTISRDNAKNTVYLQMNSLKPEDTAVYYCAAGFHKRVTPEILYDYWGQGTQVTVSS” the “polyreactivity (PSR sort gate)” value was “low polyreactivity”.
For “QVQLVESGGGLVQAGGSLRLSCAASGRIFDYYAMGWYRQAPGKERELVAAINRGGNTYYADSVKGRFTISRDNAKNTVYLQMNSLKPEETSVYYCNAQWYYLRYRYDYWGQGTQVTVSS”, the “polyreactivity (PSR sort gate)” value was “high polyreactivity”.
